Blank lines part the entries; values can stand above or below the binder they belong to.
Target: T1, human MU-1 Ig fusion protein (human, UniProt Q9HBE5 20-235)
T1 construct: also called MUFc; IL-21R; not shown: Ig part of the fusion protein
Test: Biacore, MU-1 Ig fusion protein immobilized on chip
Description: Both human and murine Ig fusion proteins were constructed and immobilized on Biacore chips in an effort to identify the ligand for MU-1. A variety of cell culture conditioned media as well as a panel of known cytokines were evaluated for binding to MU-1. Some cytokines were also tested in combination with other receptor chains in the family to consider the possibility that MU-1 may require a second receptor chain for ligand binding. The following cytokines were tested and found to be negative for MU-1 binding: mIL-2, hIL-2, hIL-15, mIL-7, TSLP, TSLP+IL-7, TSLP+IL-7R, TSLP+IL-7g, TSLP+IL-2, TSLP+IL-2+IL-2Rbeta, IL2-Rbeta, IL-2Rgamma, IL-7R, IL-2+IL-2Rbeta, IL-2+IL-2Rgamma, IL-15+IL-2Rbeta, IL-15+IL-2Rgamma, IL-7+IL-2Rgamma, IL-2+IL-7R, IL-15+IL-7R, IL-7+IL-7R. Known receptors have been immobilized as well and tested for MUFc binding with negative results. IL-15 will bind to IL-2Rb but not IL-2Rg or MUFc.

T1 sequence (Q9HBE5 20-235): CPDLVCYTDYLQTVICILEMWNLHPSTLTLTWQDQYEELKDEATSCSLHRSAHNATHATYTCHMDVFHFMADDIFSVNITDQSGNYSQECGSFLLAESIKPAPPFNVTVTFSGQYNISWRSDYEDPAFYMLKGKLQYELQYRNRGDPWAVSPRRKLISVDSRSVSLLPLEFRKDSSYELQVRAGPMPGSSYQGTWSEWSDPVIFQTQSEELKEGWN

- binding result: no binding
B1: mIL-7 (ligand, murine, UniProt P10168 26-154, looked up)
chain: ECHIKDKEGKAYESVLMISIDELDKMTGTDSNCPNNEPNFFRKHVCDDTKEAAFLNRAARKLKQFLKMNISEEFNVHLLTVSQGTQTLVNCTSKEEKNVKEQKKNDACFLKRLLREIKTCWNKILKGSI

- binding result: no binding
B2: mIL-2 (ligand, murine, UniProt P04351 21-169, looked up)
chain: APTSSSTSSSTAEAQQQQQQQQQQQQHLEQLLMDLQELLSRMENYRNLKLPRMLTFKFYLPKQATELKDLQCLEDELGPLRHVLDLTQSKSFQLEDAENFISNIRVTVVKLKGSDNTFECQFDDESATVVDFLRRWIAFCQSIISTSPQ
